The values that follow come from patent US20190016813A1 (APROGEN KIC, published 2019).

Assay [1] addresses T1, human CD43 (JL-1 antigen) on cells (human, UniProt P16150 20-400).
T1 construct: also called leukosialin; sialophorin
T1 sequence: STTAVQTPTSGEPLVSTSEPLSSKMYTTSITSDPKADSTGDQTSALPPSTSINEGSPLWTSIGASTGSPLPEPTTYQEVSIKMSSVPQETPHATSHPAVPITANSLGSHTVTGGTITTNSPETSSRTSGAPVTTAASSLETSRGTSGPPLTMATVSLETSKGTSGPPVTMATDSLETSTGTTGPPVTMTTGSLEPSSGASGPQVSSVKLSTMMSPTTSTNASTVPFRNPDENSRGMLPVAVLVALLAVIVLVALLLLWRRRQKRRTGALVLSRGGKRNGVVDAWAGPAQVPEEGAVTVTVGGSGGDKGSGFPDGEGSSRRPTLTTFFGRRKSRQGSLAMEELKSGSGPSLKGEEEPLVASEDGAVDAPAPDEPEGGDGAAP
Put plainly: staining of CEM7 cells, fluorescence intensity (FIG. 34).

Assay [2] deals with T1, human CD43 (JL-1 antigen) on cells. Put plainly: binding to CD43 positive CEM7 cells (FIG. 45).
Assay [3] shares this target. Put plainly: immunofluorescence on Molt-4 cells, antibody 50 ug/ml, no human serum.

B1: humanized anti-CD43 antibody 257-10 (antibody, IgG1, V domains shown)
VH: QVQLVQSGAEVKKPGASVKVSCKASGYTFNGYFMNWVRQAPGQGLRWMGRINPNNGDSFYNQKFQGRVTMTRDTSTSTVYMEPSSLRSEDTAVYYCAREGYYGGRGYALDYWGQGTLVTVSS
VL: DTQMTQSPSSVSASVGDRVTITCRTSQDISNYLNWYQQKPGKAPKLLIYNTSRLHSGVPSRFSGSGSGTDFTLTISSLQPEDFATYYCQQSNMFPYTFGQGTKLEIKR
modifications: glycosylated in the light chain variable region (N50-T-S52 motif; Concanavalin A blot)
On to B1, for which the binding result in assay [1] is “binds”.

B2: modified humanized anti-CD43 antibody, light chain N50Q (antibody, V domains shown)
VH: QVQLVQSGAEVKKPGASVKVSCKASGYTFNGYFMNWVRQAPGQGLRWMGRINPNNGDSFYNQKFQGRVTMTRDTSTSTVYMEPSSLRSEDTAVYYCAREGYYGGRGYALDYWGQGTLVTVSS
VL: DTQMTQSPSSVSASVGDRVTITCRTSQDISNYLNWYQQKPGKAPKLLIYQTSRLHSGVPSRFSGSGSGTDFTLTISSLQPEDFATYYCQQSNMFPYTFGQGTKLEIK
Take B2: the binding result in assay [2] is “binds”.

B3: modified humanized anti-CD43 antibody, light chain N50A (antibody, V domains shown)
VH: QVQLVQSGAEVKKPGASVKVSCKASGYTFNGYFMNWVRQAPGQGLRWMGRINPNNGDSFYNQKFQGRVTMTRDTSTSTVYMEPSSLRSEDTAVYYCAREGYYGGRGYALDYWGQGTLVTVSS
VL: DTQMTQSPSSVSASVGDRVTITCRTSQDISNYLNWYQQKPGKAPKLLIYATSRLHSGVPSRFSGSGSGTDFTLTISSLQPEDFATYYCQQSNMFPYTFGQGTKLEIK
notes: also called modified humanized antibody removing glycosylation
For B3, the binding result in assay [2] is recorded as “binds”.

B4: humanized anti-CD43 antibody 456-D10 (antibody, V domains shown)
VH: QVQLVQSGAEVKKPGASVKVSCKASGYTFNGYFMNWVRQAPGQGLERMGRINPNNGDSFYNQKFQGRVTMTRDTSTSTVYMELPSLRSEDTAVYYCAREGYYGGRGYALDYWGQGTLVTVSS
VL: DTQMTQSPSSVSASVGDRVTITCRTSQDISNYLNWYQQEPGKAPKLLIYNTSRLHSGVPSRFSGSGSGTDFTLTISSLQPEDFATYYCQQSNMFPYTFGQGTKLEIKR
notes: tested as humanized IgG
With B4, the binding result in assay [1] is “binds”.

B5: mouse anti-CD43 monoclonal antibody (ART140 JL1) (antibody, human IgG1, kappa, V domains shown)
VH: EVQLQQSGPELVKPGASVKISCKASGYSIGGYFMNWVKQSHGKSPEWIGRINPNNGDSFYNQKFKGTATLTVDRSSDTVHMEVLSLTSEDSAVYYCGREGYYGGRGYALDYWGQGTSVTVSS
VL: DIQMTQTTSSLSASLGDRVTISCRTSQDISNYLNWYQQKPDGTVKLLIYNTSRLHSGVPSRFSGSGSGTDYSLTIRNLEQKDIATYFCQQSNMFPYTFGGGTKLEIKR
notes: also called mouse anti-JL-1 antibody; mJL-1
B5: the binding result in assay [3] was “binds”.
